Measurements as given in patent EP4786492A1.
Several values for one entry are separate records, joined by “and”; a condition that tells them apart may be missing. Identical values can stand only once.

Tests used:
[1] = target: human DLL3 endogenously expressed on SHP77 and NCI-H82 cells (human) (UniProt Q9NYJ7); experiment: FACS SHP77 cells, 100 nM
[2] = target: human DLL3 endogenously expressed on SHP77 and NCI-H82 cells (human) (UniProt Q9NYJ7); experiment: FACS SHP77 cells, 4 nM
[3] = target: monkey DLL3 on CHO K1-cyno DLL3 cells (cynomolgus monkey DLL3 extracellular segment joined to EpCAM transmembrane and intracellular regions) (cynomolgus monkey); experiment: FACS, CHO K1-cyno DLL3 cells, 0.0064 nM antibody
Sequence of monkey DLL3 on CHO K1-cyno DLL3 cells (cynomolgus monkey DLL3 extracellular segment joined to EpCAM transmembrane and intracellular regions) (cynomolgus monkey) (chain, as listed by the source limits assumed): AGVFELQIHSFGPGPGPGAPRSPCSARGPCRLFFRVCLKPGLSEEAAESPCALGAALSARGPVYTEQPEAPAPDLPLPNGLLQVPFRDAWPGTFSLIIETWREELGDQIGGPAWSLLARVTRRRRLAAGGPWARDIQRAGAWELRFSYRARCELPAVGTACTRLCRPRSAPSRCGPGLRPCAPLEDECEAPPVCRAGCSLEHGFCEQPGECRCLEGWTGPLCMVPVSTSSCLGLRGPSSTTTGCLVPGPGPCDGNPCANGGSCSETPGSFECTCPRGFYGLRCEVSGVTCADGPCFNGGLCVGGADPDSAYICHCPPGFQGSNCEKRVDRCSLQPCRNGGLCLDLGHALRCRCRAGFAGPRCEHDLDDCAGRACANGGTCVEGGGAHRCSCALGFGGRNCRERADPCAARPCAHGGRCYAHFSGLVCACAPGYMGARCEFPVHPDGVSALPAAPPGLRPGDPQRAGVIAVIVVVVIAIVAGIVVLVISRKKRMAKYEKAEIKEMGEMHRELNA

[4] = target: human DLL3 endogenously expressed on SHP77 and NCI-H82 cells (human) (UniProt Q9NYJ7); experiment: FACS SHP77 cells, 20 nM
[5] = target: human DLL3 endogenously expressed on SHP77 and NCI-H82 cells (human) (UniProt Q9NYJ7); experiment: FACS SHP77 cells, 0.032 nM
[6] = target: human DLL1 protein (human) (UniProt O00548); experiment: ELISA, maximum over 0.1-100 nM
Sequence of human DLL1 protein (human) (O00548 18-540 limits assumed): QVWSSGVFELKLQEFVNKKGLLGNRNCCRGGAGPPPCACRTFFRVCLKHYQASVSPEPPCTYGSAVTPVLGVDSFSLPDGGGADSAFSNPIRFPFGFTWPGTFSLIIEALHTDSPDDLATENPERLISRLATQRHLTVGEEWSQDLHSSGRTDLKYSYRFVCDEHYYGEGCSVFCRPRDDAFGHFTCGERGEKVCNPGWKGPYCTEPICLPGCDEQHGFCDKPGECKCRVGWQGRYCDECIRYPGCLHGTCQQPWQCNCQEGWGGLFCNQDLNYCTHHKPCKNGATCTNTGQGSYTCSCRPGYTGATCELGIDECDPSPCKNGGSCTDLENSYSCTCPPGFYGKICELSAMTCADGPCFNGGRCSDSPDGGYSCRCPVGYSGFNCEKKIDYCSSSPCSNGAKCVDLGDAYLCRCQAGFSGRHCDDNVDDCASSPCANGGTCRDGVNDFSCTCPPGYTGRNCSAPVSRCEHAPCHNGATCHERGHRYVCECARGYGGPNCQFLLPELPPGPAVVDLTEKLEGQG

[7] = target: human DLL4 protein (human) (UniProt Q9NR61); experiment: ELISA, maximum over 0.1-100 nM
Sequence of human DLL4 protein (human) (Q9NR61 27-524 limits assumed): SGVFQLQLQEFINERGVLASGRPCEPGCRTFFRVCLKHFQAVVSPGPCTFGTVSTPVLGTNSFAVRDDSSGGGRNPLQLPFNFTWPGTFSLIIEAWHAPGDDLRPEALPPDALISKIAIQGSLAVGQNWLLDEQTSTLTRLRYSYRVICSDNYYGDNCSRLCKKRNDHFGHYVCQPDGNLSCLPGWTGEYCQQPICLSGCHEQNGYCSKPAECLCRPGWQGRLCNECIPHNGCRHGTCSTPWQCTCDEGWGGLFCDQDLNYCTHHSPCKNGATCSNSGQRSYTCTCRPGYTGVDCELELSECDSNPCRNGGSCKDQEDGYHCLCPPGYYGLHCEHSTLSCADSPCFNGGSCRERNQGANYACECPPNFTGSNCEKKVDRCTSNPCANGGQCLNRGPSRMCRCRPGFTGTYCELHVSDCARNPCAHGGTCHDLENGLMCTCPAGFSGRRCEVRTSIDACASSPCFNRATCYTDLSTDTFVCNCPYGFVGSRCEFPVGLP

[8] = target: monkey DLL3 on CHO K1-cyno DLL3 cells (cynomolgus monkey DLL3 extracellular segment joined to EpCAM transmembrane and intracellular regions) (cynomolgus monkey); experiment: FACS, CHO K1-cyno DLL3 cells, 20 nM antibody
[9] = target: monkey DLL3 on CHO K1-cyno DLL3 cells (cynomolgus monkey DLL3 extracellular segment joined to EpCAM transmembrane and intracellular regions) (cynomolgus monkey); experiment: FACS, CHO K1-cyno DLL3 cells, 100 nM antibody
[10] = target: human DLL3 endogenously expressed on SHP77 and NCI-H82 cells (human) (UniProt Q9NYJ7); experiment: FACS SHP77 cells, 0.0064 nM
[11] = target: human DLL3 endogenously expressed on SHP77 and NCI-H82 cells (human) (UniProt Q9NYJ7); experiment: FACS SHP77 cells, 0.8 nM
[12] = target: monkey DLL3 on CHO K1-cyno DLL3 cells (cynomolgus monkey DLL3 extracellular segment joined to EpCAM transmembrane and intracellular regions) (cynomolgus monkey); experiment: FACS, CHO K1-cyno DLL3 cells, 0.8 nM antibody
[13] = target: monkey DLL3 on CHO K1-cyno DLL3 cells (cynomolgus monkey DLL3 extracellular segment joined to EpCAM transmembrane and intracellular regions) (cynomolgus monkey); experiment: FACS, CHO K1-cyno DLL3 cells, 0.032 nM antibody
[14] = target: monkey DLL3 on CHO K1-cyno DLL3 cells (cynomolgus monkey DLL3 extracellular segment joined to EpCAM transmembrane and intracellular regions) (cynomolgus monkey); experiment: FACS, CHO K1-cyno DLL3 cells, 0.00128 nM antibody
[15] = target: monkey DLL3 on CHO K1-cyno DLL3 cells (cynomolgus monkey DLL3 extracellular segment joined to EpCAM transmembrane and intracellular regions) (cynomolgus monkey); experiment: FACS, CHO K1-cyno DLL3 cells, 4 nM antibody
[16] = target: human DLL3 endogenously expressed on SHP77 and NCI-H82 cells (human) (UniProt Q9NYJ7); experiment: FACS SHP77 cells, 0.16 nM
[17] = target: human DLL3 endogenously expressed on SHP77 and NCI-H82 cells (human) (UniProt Q9NYJ7); experiment: FACS SHP77 cells, 0.00128 nM
[18] = target: monkey DLL3 on CHO K1-cyno DLL3 cells (cynomolgus monkey DLL3 extracellular segment joined to EpCAM transmembrane and intracellular regions) (cynomolgus monkey); experiment: FACS, CHO K1-cyno DLL3 cells, 0.16 nM antibody

Sequence of human DLL3 endogenously expressed on SHP77 and NCI-H82 cells (human) (Q9NYJ7 27-618): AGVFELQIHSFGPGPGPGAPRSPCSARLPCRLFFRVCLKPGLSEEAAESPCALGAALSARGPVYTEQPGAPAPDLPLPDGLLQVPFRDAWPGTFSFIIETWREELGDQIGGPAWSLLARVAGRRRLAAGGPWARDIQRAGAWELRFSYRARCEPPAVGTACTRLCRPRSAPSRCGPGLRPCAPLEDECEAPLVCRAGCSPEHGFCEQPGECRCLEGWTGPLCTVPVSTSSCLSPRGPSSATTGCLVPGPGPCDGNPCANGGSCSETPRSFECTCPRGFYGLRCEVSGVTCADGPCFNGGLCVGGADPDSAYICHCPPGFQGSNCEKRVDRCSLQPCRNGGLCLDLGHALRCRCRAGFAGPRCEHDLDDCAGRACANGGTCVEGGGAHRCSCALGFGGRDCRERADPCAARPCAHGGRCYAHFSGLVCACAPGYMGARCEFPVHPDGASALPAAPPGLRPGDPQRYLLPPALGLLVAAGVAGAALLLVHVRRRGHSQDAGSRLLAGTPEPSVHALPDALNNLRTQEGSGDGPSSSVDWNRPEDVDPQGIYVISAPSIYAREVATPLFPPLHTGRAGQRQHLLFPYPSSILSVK

| MFI [1] | MFI [2] | MFI [3] | MFI [4] | MFI [5] | Emax of OD450 nm binding value [6] | Emax of OD450 nm binding value [7] | MFI [8] | MFI [9] | MFI [10] | MFI [11] | MFI [12] | MFI [13] | MFI [14] | MFI [15] | MFI [16] | MFI [17] | MFI [18] | Substance |
| --- | --- | --- | --- | --- | --- | --- | --- | --- | --- | --- | --- | --- | --- | --- | --- | --- | --- | --- |
| 529 MFI and 628 MFI | 476 MFI and 517 MFI | 314 MFI and 189 MFI | 500 MFI and 566 MFI | 334 MFI and 234 MFI | 0.05 OD450 | 0.05 OD450 | 5010 MFI and 2630 MFI | 4930 MFI and 2330 MFI | 235 MFI and 146 MFI | 465 MFI and 478 MFI | 4510 MFI and 1900 MFI | 690 MFI and 299 MFI | 161 MFI and 185 MFI | 5040 MFI and 2330 MFI | 432 MFI and 411 MFI | 188 MFI and 146 MFI | 1970 MFI and 700 MFI | SC16.56 (antibody) |
| – | – | – | – | – | 0.04 OD450 and 0.05 OD450 and 0.07 OD450 | 0.04 OD450 and 0.07 OD450 and 0.05 OD450 | – | – | – | – | – | – | – | – | – | – | – | hIgG1 (antibody) |
